Measured values reported in patent US20140302028A1.

Columns and labels:
[1] = biological target: recombinant human FcRn (Sino Biological Inc.) (human) (UniProt P55899); assay: SPR (Biacore T100), human FcRn immobilised, pH 6, two-state model, complex formation
[2] = biological target: recombinant human FcRn (Sino Biological Inc.) (human) (UniProt P55899); assay: SPR (Biacore T100), human FcRn immobilised, pH 6, two-state model
[3] = biological target: recombinant mouse FcRn (R&D Systems) (mouse) (UniProt Q61559); assay: SPR (Biacore T100), mouse FcRn immobilised, pH 6, two-state model
Sequence of UniProt Q61559 (Q61559 22-297 limits assumed, chain 1 of 2): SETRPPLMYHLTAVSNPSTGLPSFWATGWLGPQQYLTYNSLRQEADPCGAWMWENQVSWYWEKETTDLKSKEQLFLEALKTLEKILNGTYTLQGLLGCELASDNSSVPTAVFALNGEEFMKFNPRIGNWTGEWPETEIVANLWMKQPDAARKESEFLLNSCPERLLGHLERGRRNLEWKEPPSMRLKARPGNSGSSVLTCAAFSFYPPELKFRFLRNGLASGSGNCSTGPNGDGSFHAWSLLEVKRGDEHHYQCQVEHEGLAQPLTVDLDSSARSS
Sequence of UniProt Q61559 (chain, as listed by the source limits assumed, chain 2 of 2): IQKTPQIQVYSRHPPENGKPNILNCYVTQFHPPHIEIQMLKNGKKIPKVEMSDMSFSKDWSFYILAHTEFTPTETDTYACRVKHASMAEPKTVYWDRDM

[4] = biological target: recombinant mouse FcRn (R&D Systems) (mouse) (UniProt Q61559); assay: SPR (Biacore T100), mouse FcRn immobilised, pH 6, two-state model, complex formation
[5] = biological target: recombinant mouse FcRn (R&D Systems) (mouse) (UniProt Q61559); assay: SPR (Biacore T100), mouse FcRn immobilised, pH 6, two-state model, complex stabilization
[6] = biological target: recombinant human FcRn (Sino Biological Inc.) (human) (UniProt P55899); assay: SPR (Biacore T100), human FcRn immobilised, pH 6, two-state model, complex stabilization

Sequence of UniProt P55899 (P55899 24-297 limits assumed, chain 1 of 2): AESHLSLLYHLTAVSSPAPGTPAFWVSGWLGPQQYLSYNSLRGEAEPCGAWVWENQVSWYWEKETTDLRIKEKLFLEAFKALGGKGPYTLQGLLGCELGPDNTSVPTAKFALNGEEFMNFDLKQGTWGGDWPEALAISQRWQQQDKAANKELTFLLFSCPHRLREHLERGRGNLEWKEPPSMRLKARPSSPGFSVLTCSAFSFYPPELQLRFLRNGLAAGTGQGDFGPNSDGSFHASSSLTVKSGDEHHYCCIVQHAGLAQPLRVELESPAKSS
Sequence of UniProt P55899 (chain, as listed by the source limits assumed, chain 2 of 2): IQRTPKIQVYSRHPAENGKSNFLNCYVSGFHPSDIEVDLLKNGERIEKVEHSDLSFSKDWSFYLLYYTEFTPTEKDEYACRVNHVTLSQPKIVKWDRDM

Substance: HUMIRA ® (antibody)
- koff [1]: 0.313 s⁻¹
- kon [1]: 5.99e+06 M⁻¹ s⁻¹
- Kd [2]: 34 nM
- Kd [3]: 6.66 nM
- koff [4]: 0.0153 s⁻¹
- kon [4]: 159000 M⁻¹ s⁻¹
- kd (Complex Stabilization) [5]: 0.000107 s⁻¹
- kd (Complex Stabilization) [6]: 0.00155 s⁻¹
